Measured values from paper PMC7170535.

What was measured:
[1] = target: complement C3 (human)
[2] = target: complement C3 (human); test: SPR; ~2,000 RU C3 immobilised on a CM5 chip; rHC1 as analyte; HEPES-buffered saline pH 7.5, 0.05% Tween 20, 2 mM MnCl2
[3] = target: complement C3 (human); test: SPR; ~2,000 RU C3 immobilised on a CM5 chip by amide coupling; rHC1 or IαI as analyte; HEPES-buffered saline pH 7.5, 0.05% Tween 20, 2 mM Mg2+, 2 mM Mn2+; multicycle kinetics, 1:1 Langmuir

- fluid phase alternative pathway C3 convertase (C3bBb) assay, proteolytic release of C3a quantified by SDS-PAGE; rHC1 at 0 to 27 μM [1]: 980 nM
- Kd [2]: 473 nM
- Kd [3]: 364 nM
B1: recombinant inter-α-inhibitor heavy chain 1 (rHC1), wild type (natural protein)
chain: SKSSEKRQAVDTAVDGVFIRSLKVNCKVTSRFAHYVVTSQVVNTANEAREVAFDLEIPKTAFISDFAVTADGNAFIGDIKDKVTAWKQYRKAAISGENAGLVRASGRTMEQFTIHLTVNPQSKVTFQLTYEEVLKRNHMQYEIVIKVKPKQLVHHFEIDVDIFEPQGISKLDAQASFLPKELAAQTIKKSFSGKKGHVLFRPTVSQQQSCPTCSTSLLNGHFKVTYDVSRDKICDLLVANNHFAHFFAPQNLTNMNKNVVFVIDISGSMRGQKVKQTKEALLKILGDMQPGDYFDLVLFGTRVQSWKGSLVQASEANLQAAQDFVRGFSLDEATNLNGGLLRGIEILNQVQESLPELSNHASILIMLTDGDPTEGVTDRSQILKNVRNAIRGRFPLYNLGFGHNVDFNFLEVMSMENNGRAQRIYEDHDATQQLQGFYSQVAKPLLVDVDLQYPQDAVLALTQNHHKQYYEGSEIVVAGRIADNKQSSFKADVQAHGEGQEFSITCLVDEEEMKKLLRERGHMLENHVERLWAYLTIQELLAKRMKVDREERANLSSQALQMSLDYGFVTPLTSMSIRGMADQDGLKPTIDKPSEDSPPLEMLGPRRTFVLSALQPSPTHSSSNTQRLPDRVTGVDTD
